Test results taken from the Human Domainome abundance scans (Beltran et al. 2025).

B1: Double-stranded RNA-specific adenosine deaminase, residues 296 to 358; numbered along this chain, P55265 (parent)
chain: MAEIKEKICDYLFNVSDSSALNLAKNIGLTKARDINAVLIDMERQGDVYRQGTTPPIWHLTDK

Variants of: B1
Experiment: abundance fitness (aPCA) (normalised: wild type 0, dead -1); higher = more abundant; growth selection in yeast, the domain comes from the species named
Details: Homo sapiens

Abundance fitness of substitutions, site by site:
S16: Y -0.684; N -0.006; Q -0.124; I -0.543; A -0.018; C -0.25; H -0.108; W -0.514; D -0.342; L -0.525; K 0.206; M -0.379; T -0.407; P -0.1; V -0.249
S18: W -0.535; P -0.83; H -0.366; Q -0.481; Y -0.698; R -0.721; T -0.388; I -1.01; D -0.461; M -0.684; E -0.49; K -0.549; N -0.607; F -0.816; V -0.699
L21: Q 0.158; I -0.044; V -0.015; Y -0.111; R -0.02; A 0.263; D 0.339; C -0.136; S 0.05; W -0.071; T 0.125; H -0.046; M 0.029; N 0.067; G 0.009; E 0.476
Y11: I -0.214; F -0.056; N -0.407; Q -0.204; T -0.341; G -0.391; S -0.255; K -0.256; R -0.376; P -0.175; E -0.035; M -0.429; V -0.359
S19: T -0.236; Y -0.5
A20: V -0.446; S -0.228; N -0.481; R -0.615; P -0.673; E -0.216; T -0.295; D -0.64; F -0.311; G -0.45; I -0.68; W -0.627; Y -0.901; K -0.606; Q -0.472; H -0.578; L -0.42
N22: H -0.117; W -0.609; R -0.682; P -0.219; D 0.004; Q 0.162; G -0.314; L -0.479; E 0.165; M -0.493; I -0.339; T -0.141; Y -0.386; A -0.297; S -0.323; V -0.18; K -0.424
F13: H 0.1; V -0.061; G 0.335; R 0.577; C 0.19; Q 0.541; M 0.339; W -0.051; I 0.142; S 0.403; N 0.366; P -0.216; A 0.543; T 0.227; Y 0.079; E 0.383; K 0.538
D17: M -0.499; T -0.501; A 0.405
L12: C -1.02; R -0.367; W -1.01; Y -0.044; I -0.69; A -0.481; F -0.727; M -0.82; S -0.295; D -0.706; K -0.95; H -0.46; V -0.669; Q -0.512; E -0.115; G -0.441; T -0.99
V15: W -0.213; H 0.489; P -0.64; Y -0.202; M -0.203; C -0.365; S -0.137; E -0.025; A -0.147; I -0.2; F 0.045; T -0.392; R -0.231; D -0.463; K -0.089; G -0.377; Q -0.288
N14: Q 0.008; H 0.085; R 0.285; T 0.086; P -0.658; D -0.312; Y 0.045; V -0.31; L -0.121; E 0.102; K 0.434; C -0.215; F -0.385; S 0.017; W -0.426; A -0.014; M -0.189; G -0.236
